Six molecules from US20180002415A1 (Chugai, published 2018) can be followed below.

Changes are numbered by the printed parent chain.

To fix the notation:
T1: 161-340
T1 construct: Expressed in E. coli
T1 GST fusion polypeptide: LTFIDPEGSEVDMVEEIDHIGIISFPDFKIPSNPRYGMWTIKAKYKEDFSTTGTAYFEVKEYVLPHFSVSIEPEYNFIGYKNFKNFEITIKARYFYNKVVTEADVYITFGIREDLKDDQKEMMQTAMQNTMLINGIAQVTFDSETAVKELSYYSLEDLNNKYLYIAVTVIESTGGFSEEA

T2: 481-660
T2 construct: Expressed in E. coli
T2 GST fusion polypeptide: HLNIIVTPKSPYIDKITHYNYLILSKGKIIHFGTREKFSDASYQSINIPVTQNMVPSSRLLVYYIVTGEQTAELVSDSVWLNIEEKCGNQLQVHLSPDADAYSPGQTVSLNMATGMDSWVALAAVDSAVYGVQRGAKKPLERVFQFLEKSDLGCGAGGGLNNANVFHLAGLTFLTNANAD

T3: 321-500
T3 construct: Expressed in E. coli
T3 GST fusion polypeptide: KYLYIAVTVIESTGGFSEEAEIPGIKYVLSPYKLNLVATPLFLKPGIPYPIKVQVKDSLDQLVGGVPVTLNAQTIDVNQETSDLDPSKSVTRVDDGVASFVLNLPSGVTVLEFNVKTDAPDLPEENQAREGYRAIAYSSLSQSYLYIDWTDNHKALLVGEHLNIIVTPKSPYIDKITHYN

T4: recombinant cynomolgus monkey C5 (cynomolgus monkey, UniProt P01031 20-1676 (human entry), limits assumed)
T4 construct: also called cynoC5
T4 chain: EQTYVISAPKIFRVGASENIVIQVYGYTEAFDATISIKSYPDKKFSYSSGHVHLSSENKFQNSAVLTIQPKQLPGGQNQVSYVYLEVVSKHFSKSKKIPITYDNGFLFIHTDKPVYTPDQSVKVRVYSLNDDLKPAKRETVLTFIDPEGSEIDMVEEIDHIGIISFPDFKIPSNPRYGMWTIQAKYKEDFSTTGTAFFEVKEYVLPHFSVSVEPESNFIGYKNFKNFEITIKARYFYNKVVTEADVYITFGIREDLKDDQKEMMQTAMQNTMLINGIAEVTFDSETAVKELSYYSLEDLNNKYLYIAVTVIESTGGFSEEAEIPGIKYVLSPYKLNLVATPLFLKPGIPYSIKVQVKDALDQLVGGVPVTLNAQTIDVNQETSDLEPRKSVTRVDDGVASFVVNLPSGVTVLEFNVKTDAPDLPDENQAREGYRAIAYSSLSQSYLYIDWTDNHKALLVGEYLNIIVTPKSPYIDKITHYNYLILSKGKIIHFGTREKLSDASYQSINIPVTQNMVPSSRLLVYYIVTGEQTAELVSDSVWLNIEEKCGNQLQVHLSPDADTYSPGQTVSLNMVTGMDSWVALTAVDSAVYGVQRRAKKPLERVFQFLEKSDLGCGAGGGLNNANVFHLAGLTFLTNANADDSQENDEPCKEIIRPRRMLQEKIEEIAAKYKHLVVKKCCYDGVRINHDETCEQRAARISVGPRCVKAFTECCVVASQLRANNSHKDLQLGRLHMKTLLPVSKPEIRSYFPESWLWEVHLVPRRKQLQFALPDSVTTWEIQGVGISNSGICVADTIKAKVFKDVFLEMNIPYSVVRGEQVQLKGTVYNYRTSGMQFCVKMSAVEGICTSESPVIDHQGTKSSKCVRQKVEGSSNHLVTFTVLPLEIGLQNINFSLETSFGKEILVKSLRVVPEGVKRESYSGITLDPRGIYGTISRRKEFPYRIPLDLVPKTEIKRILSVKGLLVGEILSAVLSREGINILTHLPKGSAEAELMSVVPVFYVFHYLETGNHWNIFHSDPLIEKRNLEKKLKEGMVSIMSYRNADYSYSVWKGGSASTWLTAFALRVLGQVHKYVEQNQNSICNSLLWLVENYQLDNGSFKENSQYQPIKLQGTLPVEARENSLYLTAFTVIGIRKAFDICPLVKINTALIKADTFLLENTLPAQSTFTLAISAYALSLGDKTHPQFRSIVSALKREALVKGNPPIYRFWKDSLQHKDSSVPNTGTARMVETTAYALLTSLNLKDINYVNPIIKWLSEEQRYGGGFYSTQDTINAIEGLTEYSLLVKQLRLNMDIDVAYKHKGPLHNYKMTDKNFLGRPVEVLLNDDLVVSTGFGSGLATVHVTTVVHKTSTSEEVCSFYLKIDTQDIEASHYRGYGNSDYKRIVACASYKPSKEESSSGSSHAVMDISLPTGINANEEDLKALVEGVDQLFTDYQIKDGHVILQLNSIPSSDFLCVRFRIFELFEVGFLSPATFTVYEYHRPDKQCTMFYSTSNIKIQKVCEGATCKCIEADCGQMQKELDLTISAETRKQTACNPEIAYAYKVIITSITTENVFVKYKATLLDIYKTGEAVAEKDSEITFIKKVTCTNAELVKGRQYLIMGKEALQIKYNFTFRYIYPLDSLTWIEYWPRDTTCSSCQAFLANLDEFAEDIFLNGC

B1: CFA0599 (antibody, V domains shown)
VH: QSVEESGGRLVTPGTPLTLTCTVSGLSLSDNTMTWVRQAPGKGLEWIGIISFGGDAYYASWAKGRFPISKTSTTVDLRITSPTTEDTATYFCARVGAGNIFWYFDLWGPGTLVTVSS
VL: AYDMTQTPASVEVSVGGTVTIKCQASESIYSALAWYQQKPGQPPKLLIYSASTLASGVPSRFKGSGSGTEYTLTISDLECADAATYYCQQYYSSTNVHNSFGGGTTVVVE
notes: Chimeric, rabbit V regions; also called CFA0599-F760G4
B2: CFA0666 (antibody, V domains shown)
VH: QSVEESGGRLVTPGTPLTLTCTVSGFSLSTYAMGWVRQAPGKGLEWIGTIDTGDNSFYANWAKGRFTISKTSTTVDLKITSPTAEDTATYFCARNDGSVYNLFNLWGPGTLVTVSS
VL: DVVMTQTPASVSAAVGGTVTIKCQASENIYSALSWYQQKPGLRPRLLIYYASTLASGVPSRFKGSRSGTEFTLTISDLECADAATYYCQQYYDINSVDNTFGGGTKVVVE
notes: Chimeric, rabbit V regions; also called CFA0666-F760G4
B3: CFA0501 (antibody, V domains shown)
VH: QSVEESGGRLVTPGTPLTLTCTASGFSLSSYYMNWVRQAPGKGLEWIGMIYGSGATYYASWAKGRFTISKTSSTTVDLKMTSLTTEDTATYFCARQIYSGDNNDNFWGPGTLVTVSS
VL: AYDMTQTPASVEVAVGGTVTINCQASESISNWLAWYQQKPGQRPKLLIYRASTLASGVSSRFKGSGSGTQFTLTISGVECDDAATYYCQQDYSSSNVDNTFGGGTKVVVE
notes: Chimeric, rabbit V regions; also called CFA0501-F760G4
B4: CFA0538 (antibody, V domains shown)
VH: B3 VH
VL: B3 VL with K106T
notes: Chimeric, rabbit V regions; also called CFA0538-F760G4
B5: 305LO16-SG422 (antibody, human IgG4, V domains shown)
VH: QVQLVESGGGLVQPGRSLRLSCAASGFTVHSSYYMAWVRQAPGKGLEWVGAIFTGSGAEYKAEWVKGRFTISRDNSKNTLYLQMNSLRAEDTAVYYCASDAGYDYPTHAMHYWGRGTLVTVSS
VL: DIQMTQSPSSLSASVGDRVTITCRASQGISSSLAWYQQKPGKAPKLLIYGASETESGVPSRFSGSGSGTDFTLTISSLQPEDFATYYCQNTKVGSSYGNTFGGGTKVEIKR
notes: Modified human IgG4 CH SG422, human CL SK1
B6: 305LO20-SG115 (antibody, human IgG1)
heavy: QVQLVESGGGLVQPGGSLRLSCAASGFTVHSSYYMAWVRQAPGKGLEWVGAIFTGSGAEYKAEWAKGRVTISKDTSKNQVVLTMTNMDPVDTATYYCASDAGYDYPTHAMHYWGQGTLVTVSSASTKGPSVFPLAPSSKSTSGGTAALGCLVKDYFPEPVTVSWNSGALTSGVHTFPAVLQSSGLYSLSSVVTVPSSSLGTQTYICNVNHKPSNTKVDKKVEPKSCDKTHTCPPCPAPELRRGPKVFLFPPKPKDTLMISRTPEVTCVVVDVSHEDPEVKFNWYVDGVEVHNAKTKPREEQYNSTYRVVSVLTVLHQDWLNGKEYKCKVSNKGLPSSIEKTISKAKGQPREPQVYTLPPSREEMTKNQVSLTCLVKGFYPSDIAVEWESNGQPENNYKTTPPVLDSDGSFFLYSKLTVDKSRWQQGNVFSCSVLHEALHAHYTRKELSLSP
light: DIQMTQSPSSLSASVGDRVTITCRASQGISSSLAWYQQKPGQAPRLLIYGASETESGVPSRFSGSGSGTDFTLTISSLQPEDFATYYCQNTKVGSSYGNTFGGGTKVEIKRTVAAPSVFIFPPSDEQLKSGTASVVCLLNNFYPREAKVQWKVDNALQSGNSQESVTEQDSKDSTYSLSSTLTLSKADYEKHKVYACEVTHQGLSSPVTKSFNRGEC
notes: Modified human IgG1 CH SG115, human CL SK1

T6 sequence (P01031 45-111): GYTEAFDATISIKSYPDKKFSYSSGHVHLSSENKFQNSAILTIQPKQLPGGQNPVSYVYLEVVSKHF
T5 sequence (P01031 52-124): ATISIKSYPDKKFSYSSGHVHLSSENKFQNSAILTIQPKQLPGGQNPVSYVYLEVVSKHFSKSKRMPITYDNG

The first assay has as its target T5, C5 peptide 52-124 fused to GST-tag (human, UniProt P01031 52-124).
T5 construct: not shown: GST-tag (glutathione S-transferase); vector and linker not restated
Nature of the assay: summary drawing of the binding reactions to C5 beta-chain fragments.
B1: the binding result is listed as “no binding”.

B2: the binding result is reported as “no binding”.

Consider B3, for which the binding result is reported as “no binding”.

Consider B4, for which the binding result is “no binding”.

A further assay concerns the target T6, C5 peptide 45-111 fused to GST-tag (human, UniProt P01031 45-111).
T6 construct: not shown: GST-tag (glutathione S-transferase); vector and linker not restated
Described as above.
Take B1: the binding result is given as “no binding”.

On to B2, for which the binding result was “no binding”.

Regarding B3, the binding result is “no binding”.

As to B4, the binding result is listed as “no binding”.

In another assay the target is T7, C5 peptide 45-124 fused to GST-tag (human, UniProt P01031 45-124).
T7 construct: not shown: GST-tag (glutathione S-transferase); vector and linker not restated
T7 sequence (P01031 45-124): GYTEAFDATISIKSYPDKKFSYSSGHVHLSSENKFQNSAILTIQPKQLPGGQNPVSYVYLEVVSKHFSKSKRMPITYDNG
The assay is described as above.
As to B1, the binding result is “no binding”.

For the molecule B2, the binding result is “no binding”.

B3: the binding result is recorded as “no binding”.

With B4, the binding result is listed as “no binding”.

In a further assay the target is T8, C5 peptide 33-108 fused to GST-tag (human, UniProt P01031 33-108).
T8 construct: not shown: GST-tag (glutathione S-transferase); vector and linker not restated
T8 sequence (P01031 33-108): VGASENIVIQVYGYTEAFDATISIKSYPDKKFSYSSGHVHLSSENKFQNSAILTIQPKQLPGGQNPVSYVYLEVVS
Described as above.
As for B1, the binding result is on record as “no binding”.

B2: the binding result is listed as “no binding”.

As to B3, the binding result is “no binding”.

For the molecule B4, the binding result is “no binding”.

The target of another assay is T9, C5 peptide 33-111 fused to GST-tag (human, UniProt P01031 33-111).
T9 construct: not shown: GST-tag (glutathione S-transferase); vector and linker not restated
T9 sequence (P01031 33-111): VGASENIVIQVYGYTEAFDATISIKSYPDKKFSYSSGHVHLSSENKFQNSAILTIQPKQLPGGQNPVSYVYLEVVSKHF
The description is as above.
In the case of B1, the binding result is reported as “no binding”.

With B2, the binding result is listed as “no binding”.

In the case of B3, the binding result was “no binding”.

On to B4, for which the binding result is “no binding”.

For another assay, the target named is T10, recombinant human C5 (human, UniProt P01031 20-1676).
T10 construct: Also used for the C5 of normal human serum in the functional rows; also called hC5; rhC5
Nature of the assay: SPR (Biacore), ratio of dissociation rates of conditions (2) and (1). In general terms: In SPR one partner is held on a chip, and binding of the other changes the refractive index at the surface.
Protocol: (§1) The kinetic parameters of anti-C5 antibodies against recombinant human C5 were assessed at 37° C. using BIACORE® T200 instrument (GE Healthcare) at three different conditions; (1) both association and dissociation were at pH7.4, (2) both association and dissociation were at pH5.8, and (3) association was at pH7.4 but dissociation was at pH5.8. ProA/G (Pierce) was immobilized onto a CM1 sensorchip using amine coupling kit (GE Healthcare) according to the recommended settings by GE Healthcare. Antibodies and analytes for condition (1) and (3) were diluted in ACES pH7.4 buffer (20 mM ACES, 150 mM NaCl, 1.2 mM CaCl₂, 0.05% Tween 20, 0.005% NaN₃) and for condition (2) they were diluted in ACES pH5.8 buffer (20 mM ACES, 150 mM NaCl, 1.2 mM CaCl₂, 0.05% Tween 20, 0.005% NaN₃). […] The surface was regenerated using 25 mM NaOH. Kinetic parameters at condition (1) and (2) were determined by fitting the sensorgrams with a 1:1 binding model and the dissociation rate at condition (3) was determined by fitting the sensorgrams with a 1:1 dissociation for MCK model using BIACORE® T200 Evaluation software, version 2.0 (GE Healthcare). pH dependency of all antibodies were shown as ratio of dissociation rate of condition (2) and (1).
On to B5, for which the “pH dependency (kd pH 5.8 / kd pH 7.4)” value turned out to be 21.1 fold.

Regarding B6, the “pH dependency (kd pH 5.8 / kd pH 7.4)” value was determined as 17.5 fold.

A further assay deals with T1, 161-340. Nature of the assay: Western blot of E. coli lysates expressing GST-fused C5 beta-chain fragments. (A western blot detects proteins with antibodies after separation by electrophoresis.)
Protocol: (§2) Anti-C5 monoclonal antibodies (MAbs) were tested for binding to C5 β-chain-derived peptides in Western blot analysis. […] The E. coli samples were harvested after incubation with 1 mM Isopropyl β-D-1-thiogalactopyranoside (IPTG) for 5 hours at 37° C., and centrifuged at 20000×g for 1 min to obtain pellets.
With B1, the binding result was “no binding”.

On to B2, for which the binding result is “no binding”.

On to B3, for which the binding result was “no binding”.

On to B4, for which the binding result was “no binding”.

For another assay, the target named is T2, 481-660. The description is as above.
Protocol: as §2
Regarding B1, the binding result is “no binding”.

Regarding B2, the binding result is given as “no binding”.

In the case of B3, the binding result is “no binding”.

In the case of B4, the binding result was “no binding”.

For a further assay, the target named is T3, 321-500. Described as above.
Protocol: as §2
Turning to B1, the binding result is given as “no binding”.

In the case of B2, the binding result was “no binding”.

As for B3, the binding result was “no binding”.

For the molecule B4, the binding result is listed as “no binding”.

The target of the next assay is T10, recombinant human C5. Nature of the assay: SPR (Biacore), 37C, association and dissociation at pH 5.8, Ab on ProA/G.
Protocol: as §1
As to B5, the koff (usually the first-order rate constant of dissociation) was 0.00869 s⁻¹ and the kon (as a rule, the second-order rate constant of association) amounted to 109000 M⁻¹ s⁻¹.

For B6, the koff worked out at 0.00818 s⁻¹ and the kon was determined as 141000 M⁻¹ s⁻¹.

In a further assay the target is T4, recombinant cynomolgus monkey C5. Nature of the assay: SPR (Biacore), 37C, pH 7.4, Ab captured on ProA/G.
Protocol: To observe the cross-reactivity of anti-C5 antibodies against human C5 (hC5) and cynomolgus monkey C5 (cynoC5), BIACORE® kinetics analysis was performed.
B1: the Kd (usually the constant that tells how readily two partners part at equilibrium) came out at 4.33 nM.

As to B2, the Kd worked out at 1.57 nM.

For B3, the Kd is 5.88 nM.

As to B4, the dissociation constant Kd came out at 5.44 nM.

For the next assay, the target named is T10, recombinant human C5. Nature of the assay: SPR (Biacore), 37C, association at pH 7.4, dissociation at pH 5.8.
Protocol: as §1
For the molecule B5, the koff came out at 0.0161 s⁻¹.

Turning to B6, the koff is 0.0161 s⁻¹.

A further assay deals with T10, recombinant human C5. Nature of the assay: SPR (Biacore), 37C, association and dissociation at pH 7.4, Ab on ProA/G.
Protocol: as §1
Regarding B5, the koff was 0.000412 s⁻¹ and the kon was determined as 1.28e+06 M⁻¹ s⁻¹.

Regarding B6, the off-rate (koff) amounted to 0.000467 s⁻¹ and the kon amounted to 1.44e+06 M⁻¹ s⁻¹.
